Laboratory results as given in patent US20230181528A1, “COMPOSITIONS AND METHODS FOR TREATING NEOPLASIA” (The Broad Institute, Inc., priority 2020, published 2023).

Assays:
VPS4B^neutral cell lines = experiment: CRISPR-based cell viability assay with CellTiter-Glo (sgRNAs targeting VPS4A); design: species or system human; conditions: YAPC; seven-day CellTiter-Glo; scale 0 (cutting controls) to −1 (pan-essential sgRNAs); read from FIG. 2A
Method: For FIG. 2A, CellTiter-Glo viability assays were performed with stably expressing SpCas9 cell lines in 96 well plates. Cells were seeded and infected with sgRNA expressing lentivirus in wells on day 0, and selected with puromycin 24 hours later. Cell titer-Glo viability was read out 7 days after plating and infection. Prior to CellTiter-Glo viability assays, all cell lines were individually optimized for the assay including titrating both cell seeding density and volume of virus used for infection. All lentiviral preps for each sgRNA described below were batch controlled and titrated on three different cell lines representing cell lines with low, medium and high transduction efficiency. Optimal cell seeding densities and viral volumes for infections were then used for all subsequent viability assays using CRISPR. […]
Each assay was required to meet specific quality control metrics. […] For quality control of raw luminescence from CellTiter-Glo, infection efficiency (puro/no puro selection for each sgRNA) was required to be at least 80%, and all replicate wells had to be within 2 standard deviations of the mean for that sgRNA infection. […] SpCas9 activity from each cell line was also required to be greater than 50%, determined by the percent viability reduction of the average of the 3 pan-essential genes (sgPOLR2D, sgSF3B1 and sgKIF11) to negative controls (sgLacZ, sgChr2 and sgAAVS1). […]

VPS4 ATPase activity = experiment: In vitro assay of ATPase activity of recombinant VPS4A and VPS4B constructs; format: biochemical; conditions: for fold change in turnover number between VPS4A and VPS4B construct with the same tag: VPS4B construct vs VPS4A construct; for Turnover (preliminary turnover number): recombinant tagged constructs, ATPase activity
From the text: Active oligomers of VPS4A and VPS4B were achieved through recombinant production and an in vitro assay was used to measure ATPas activity. […] Hcp1 (also known as His6 tag (SEQ ID NO: 32)) and FL (also known as FLAG tag) were used.

[1] = tested on: PANC0403 pancreatic cancer cell line (VPS4B^loss); experiment: Interferon dose-response curves with VPS4A suppression (CellTiter-Glo); format: cell-based, human; conditions: PANC0403 shVPS4A-2, co-treatment with 1 μM doxycycline, interferon titration for last 3 days
Method: (§1) To determine whether interferon treatment cooperate with VPS4A suppression, pancreatic cancer cell lines (KP4, PANC0403 and SNU213) stably expressing the doxycycline-inducible RNAi system against VPS4A (shVPS4A-2) were plated in white-walled 96-well plates at 100˜400 cells per well in 100 μL of 10% FBS-supplemented RPMI-1640 with L-glutamine with or without 1 μM doxycycline. Plates were incubated at 37° C., 5% CO2 for 3 days. […] At the same time, the doxycycline was refreshed. Cells were then incubated for an additional 3 days at 37° C., 5% CO2. Afterwards, 100 μL of premixed CellTiter-Glo (Promega) reagent was added to the wells to lyse cells by shaking the plates at 500 RPM for 10 minutes at room temperature. Luminescence for each well was then measured using an Envision plate reader (Perkin Elmer) to measure cell viability using the ATP-based readout. Luminescence signal for each well was normalized to the average signal from 6 wells treated without interferon for each cell line. These normalized values were then visualized using GraphPad Prism 8.3.0 fitted with a four-parameter log-based non-linear dose-response curve.

[2] = tested on: SNU213 pancreatic cancer cell line (VPS4B^loss); experiment: as above; format: cell-based, human; conditions: SNU213 shVPS4A-2, co-treatment with 1 μM doxycycline, interferon titration for last 3 days
Method: as §1

Molecule: sgVPS4A3: sgRNA targeting VPS4A intron/exon junction, 5′-ATTGTTATTCCCCACCCCTG (SEQ ID NO: 41) (listed as DNA, chemistry not given here)
- VPS4A dependency score (normalized viability effect) (VPS4B^neutral cell lines): 0.25-0.35

Molecule: VPS4B-FL: recombinant VPS4B construct with FL (FLAG) tag
- fold change in turnover number between VPS4A and VPS4B construct with the same tag (VPS4 ATPase activity): > 1 fold
- Turnover (preliminary turnover number) (VPS4 ATPase activity): 21 s⁻¹

Molecule: interferon-γ: purified recombinant human interferon-γ (PeproTech)
- sensitization to VPS4A suppression (6-day cell viability) [1]: strongly sensitized
- sensitization to VPS4A suppression (6-day cell viability) [2]: strongly sensitized

Molecule: VPS4B-Hcp1: recombinant VPS4B construct with Hcp1 tag
- fold change in turnover number between VPS4A and VPS4B construct with the same tag (VPS4 ATPase activity): > 600 fold
- Turnover (preliminary turnover number) (VPS4 ATPase activity): 33280 s⁻¹

Molecule: sgVPS4A2: sgRNA targeting VPS4A intron/exon junction, 5′-GGGCCGCACGAAGTACCTGG (SEQ ID NO: 40) (listed as DNA, chemistry not given here)
- VPS4A dependency score (normalized viability effect) (VPS4B^neutral cell lines): 0.3-0.4

B1: VPS4A-Hcp1: recombinant VPS4A construct with Hcp1 tag (protein, UniProt Q9UN37 1-437, looked up)
Vacuolar protein …: MTTSTLQKAIDLVTKATEEDKAKNYEEALRLYQHAVEYFLHAIKYEAHSDKAKESIRAKCVQYLDRAEKLKDYLRSKEKHGKKPVKENQSEGKGSDSDSEGDNPEKKKLQEQLMGAVVMEKPNIRWNDVAGLEGAKEALKEAVILPIKFPHLFTGKRTPWRGILLFGPPGTGKSYLAKAVATEANNSTFFSVSSSDLMSKWLGESEKLVKNLFELARQHKPSIIFIDEVDSLCGSRNENESEAARRIKTEFLVQMQGVGNNNDGTLVLGATNIPWVLDSAIRRRFEKRIYIPLPEEAARAQMFRLHLGSTPHNLTDANIHELARKTEGYSGADISIIVRDSLMQPVRKVQSATHFKKVCGPSRTNPSMMIDDLLTPCSPGDPGAMEMTWMDVPGDKLLEPVVCMSDMLRSLATTRPTVNADDLLKVKKFSEDFGQES
modifications: Hcp1 tag
- Turnover (preliminary turnover number) (VPS4 ATPase activity): 53 s⁻¹

B2: VPS4A-FL: recombinant VPS4A construct with FL (FLAG) tag (protein, UniProt Q9UN37 1-437, looked up)
Vacuolar protein …: B1 Vacuolar protein …
modifications: FLAG tag
- Turnover (preliminary turnover number) (VPS4 ATPase activity): 10 s⁻¹
